Data: paper PMC10397247

Assays:
Assay in all cases: two-hybrid library CCmax;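 note: natural log of median RNA to DNA barcode read ratio; higher means stronger binding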
4H1000-AA = biological target: T1, 4H1000-AA
T1 chain: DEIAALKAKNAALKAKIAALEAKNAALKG

4H1035-AA = biological target: T2, 4H1035-AA; details: mean of both orientations
T2 chain: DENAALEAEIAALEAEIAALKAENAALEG

4H1064-AA = biological target: T3, 4H1064-AA; details: mean of both orientations
T3 chain: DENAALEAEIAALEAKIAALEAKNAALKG

4H1109-AA = biological target: T4, 4H1109-AA; details: mean of both orientations
T4 chain: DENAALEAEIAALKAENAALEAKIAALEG

4H1146-AA = biological target: T5, 4H1146-AA; details: mean of both orientations
T5 chain: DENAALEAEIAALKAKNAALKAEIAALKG

4H1348-AA = biological target: T6, 4H1348-AA; details: mean of both orientations
T6 chain: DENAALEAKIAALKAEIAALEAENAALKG

4H1391-AA = biological target: T7, 4H1391-AA; details: mean of both orientations
T7 chain: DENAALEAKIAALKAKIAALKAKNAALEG

4H146-AA = biological target: T8, 4H146-AA; details: mean of both orientations
T8 chain: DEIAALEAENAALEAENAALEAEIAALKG

4H1809-AA = biological target: T9, 4H1809-AA; details: mean of both orientations
T9 chain: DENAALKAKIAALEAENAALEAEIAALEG

4H1854-AA = biological target: T10, 4H1854-AA; details: mean of both orientations
T10 chain: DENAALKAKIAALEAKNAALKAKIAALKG

4H189-AA = biological target: T11, 4H189-AA; details: mean of both orientations
T11 chain: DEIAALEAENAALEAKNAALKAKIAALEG

4H2248-AA = biological target: T12, 4H2248-AA
T12 chain: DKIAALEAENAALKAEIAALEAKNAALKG

4H2283-AA = biological target: T13, 4H2283-AA; details: mean of both orientations
T13 chain: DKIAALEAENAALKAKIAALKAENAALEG

4H2580-AA = biological target: T14, 4H2580-AA
T14 chain: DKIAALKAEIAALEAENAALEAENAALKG

4H2713-AA = biological target: T15, 4H2713-AA; details: mean of both orientations
T15 chain: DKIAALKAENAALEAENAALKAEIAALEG

4H2742-AA = biological target: T16, 4H2742-AA; details: mean of both orientations
T16 chain: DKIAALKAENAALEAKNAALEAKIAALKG

4H2948-AA = biological target: T17, 4H2948-AA; details: mean of both orientations
T17 chain: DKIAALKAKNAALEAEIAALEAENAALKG

4H2991-AA = biological target: T18, 4H2991-AA; details: mean of both orientations
T18 chain: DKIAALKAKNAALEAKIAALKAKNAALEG

4H3029-AA = biological target: T19, 4H3029-AA; details: mean of both orientations
T19 chain: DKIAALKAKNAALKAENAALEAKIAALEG

4H3066-AA = biological target: T20, 4H3066-AA; details: mean of both orientations
T20 chain: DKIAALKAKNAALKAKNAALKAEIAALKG

4H3102-AA = biological target: T21, 4H3102-AA; details: mean of both orientations
T21 chain: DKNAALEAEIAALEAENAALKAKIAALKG

4H3121-AA = biological target: T22, 4H3121-AA; details: mean of both orientations
T22 chain: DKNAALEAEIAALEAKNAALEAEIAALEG

4H3417-AA = biological target: T23, 4H3417-AA; details: mean of both orientations
T23 chain: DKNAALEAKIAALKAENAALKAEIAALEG

4H3446-AA = biological target: T24, 4H3446-AA; details: mean of both orientations
T24 chain: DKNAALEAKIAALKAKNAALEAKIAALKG

4H3591-AA = biological target: T25, 4H3591-AA; details: mean of both orientations
T25 chain: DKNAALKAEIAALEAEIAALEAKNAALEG

4H3628-AA = biological target: T26, 4H3628-AA; details: mean of both orientations
T26 chain: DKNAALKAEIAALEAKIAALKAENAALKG

4H3666-AA = biological target: T27, 4H3666-AA; details: mean of both orientations
T27 chain: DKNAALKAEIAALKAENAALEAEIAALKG

4H3709-AA = biological target: T28, 4H3709-AA; details: mean of both orientations
T28 chain: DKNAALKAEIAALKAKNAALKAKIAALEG

4H391-AA = biological target: T29, 4H391-AA; details: mean of both orientations
T29 chain: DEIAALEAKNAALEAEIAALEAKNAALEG

4H3920-AA = biological target: T30, 4H3920-AA; details: mean of both orientations
T30 chain: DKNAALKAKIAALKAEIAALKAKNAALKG

4H3939-AA = biological target: T31, 4H3939-AA; details: mean of both orientations
T31 chain: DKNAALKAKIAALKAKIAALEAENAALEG

4H428-AA = biological target: T32, 4H428-AA; details: mean of both orientations
T32 chain: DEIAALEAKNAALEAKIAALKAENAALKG

4H478-AA = biological target: T33, 4H478-AA; details: mean of both orientations
T33 chain: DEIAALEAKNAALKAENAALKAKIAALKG

4H497-AA = biological target: T34, 4H497-AA; details: mean of both orientations
T34 chain: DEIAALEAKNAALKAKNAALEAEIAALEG

4H656-AA = biological target: T35, 4H656-AA
T35 chain: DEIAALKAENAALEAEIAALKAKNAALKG

4H675-AA = biological target: T36, 4H675-AA; details: mean of both orientations
T36 chain: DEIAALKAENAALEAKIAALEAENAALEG

4H971-AA = biological target: T37, 4H971-AA; details: mean of both orientations
T37 chain: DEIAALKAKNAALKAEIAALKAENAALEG

DEIAALKAKNAALKAKIAALEAKNAALKG [4H1000-AA] was tested, and the interaction score (4H1000-AA) was -0.42, the interaction score (4H1035-AA) was -1.26 and the interaction score (4H1064-AA) was -0.567. It also gave an interaction score (4H1109-AA) of 1.3, an interaction score (4H1146-AA) of -1.52 and an interaction score (4H1348-AA) of -1.24. For the same binder, the interaction score (4H1391-AA) was -1.56, the interaction score (4H146-AA) was -0.33 and the interaction score (4H1809-AA) was 0.471. For the same binder, the interaction score (4H1854-AA) was -1.79, the interaction score (4H189-AA) was -0.933 and the interaction score (4H2248-AA) was -1.32. The interaction score (4H2283-AA) was 0.468, the interaction score (4H2580-AA) was -1.04 and the interaction score (4H2713-AA) was -1.49. It also gave an interaction score (4H2742-AA) of -1.09, an interaction score (4H2948-AA) of 0.224 and an interaction score (4H2991-AA) of -1.19. The interaction score (4H3029-AA) was -0.99, the interaction score (4H3066-AA) was -1.96 and the interaction score (4H3102-AA) was -0.226. For the same binder, the interaction score (4H3121-AA) was -0.524, the interaction score (4H3417-AA) was -0.644 and the interaction score (4H3446-AA) was -1.24. For the same binder, the interaction score (4H3591-AA) was -0.703, the interaction score (4H3628-AA) was -1.21 and the interaction score (4H3666-AA) was 0.777. It also gave an interaction score (4H3709-AA) of -1.07, an interaction score (4H391-AA) of 0.223 and an interaction score (4H3920-AA) of -1.89. For the same binder, the interaction score (4H3939-AA) was -1.65, the interaction score (4H428-AA) was -0.137 and the interaction score (4H478-AA) was -2.48. The interaction score (4H497-AA) was -1.74, the interaction score (4H656-AA) was 0.604 and the interaction score (4H675-AA) was 2.34. For the same binder, the interaction score (4H971-AA) was -0.95.
